Measured values reported in paper PMC8178691.

Target: human purified plasma‐derived fibronectin (human)
Test: ELISA

## recombinant VWF p.D2509E (from UniProt P04275 23-2813) (natural protein)
  binding as percent of normal VWF: 68%
